Measurements published in article PMC8083607 (2021).
Where a chain is given by its changes, count along the chain named.

B1: FC11 (antibody, V domains shown)
VH: EVQLLESGGGVVQPGRSLRLSCAASGFTFSYYGMHWVRQAPGTGLEWVAVISYDGSNEYYADSVKGRFTISRDNSKNTLYLQMNSLRAEDTAVYYCAKAMFLGDSSGLTGLDMDVWGQGTTVTVSS
VL: DIELTQSPGTLSLSPGERATLSCRASQSVSSYLAWYQQKPGQAPRLLIYDASNRATGIPARFSGSGSGTDFTLTISSLEPEDFALYYCQQRGNWPPTFGGGTKLEIK
B2: FC08 (antibody, V domains shown)
VH: QLLQQSGAEVKKPGSSVKVSCKASGGTFSSYAISWVRQAPGQGLEWMGGIIPIIGIANYAQKFQGRVTITADKSTSTAYMELSSLRSEDTAVYYCARERGYSGYGAAYYFDYWGQGTLVTVSS
VL: SVLTQPPSVSGAPGQRVTISCTGSSSNIGAGYDVHWYQQLPGTAPKLLIYGNSNRPSGVPDRFSGSKSGTSASLAITGLQAEDEADYYCQSYDSSLSGSVFGGGTKLTVL
B3: FC01 (antibody, V domains shown)
VH: EVQLLESGTEVKKPGSSVKVSCKASGGTFSSYAISWVRQAPGQGLEWMGGIIPILGIANYAQKFQGRVTITADKSTSTAYMELSSLRSEDTAVYYCARERGYSGYGAAYYFDYWGQGTLVTVSS
VL: QSVLTQAPSVSGAPGQSVTISCTGSSSNIGAGYDVHWYQQLPGTAPKLLIYGNNNRPSGVPDRFSGSKSGTSASLAITGLQAEDEADYYCQSYDSSLSKGVFGGGTKLTVL
B4: FC06 (antibody, V domains shown)
VH: EVQLLESGGGVVQPGRSLRLSCAASGFTFSSYAMHWVRQAPGEGLEWVAVISYDGSNKYYADSVKGRFTISRDNSKNTLYLQMNSLRAGDTAVYYCARLNYYGSGFYYRLGDDYWGQGTLVTVSS
VL: DIELTQSPSSLSASEGDRVTITCRASQGIRNDLGWYQQKPGKAPKRLIYGAPSLQSGVPSRFSGSGSGTEFTLTISTLQPEDSATYYCLQHNKYPWTFGQGTKVEIK
B5: FC07 (antibody, V domains shown)
VH: EVQLLESGGGLVQPGGSLRLSCAASGFTFGSYAMSWVRQAPGKGLEWVSSISGSGGSTYYADSAKGRFTISRDNSKNTLYLQMNSLRAEDTAVYYCAKSPNYDILTGYYNWAGYYFDYWGQGTLVTVSS
VL: DIELTQSPGTLSLSPGDRATLSCRASRGVSSNSLAWYRQRPGESPRLVISGASTRATGIPERFSGSGSGTDFSLSISRLQPEDFAVYYCQQYGSFPFTFGPGTTVDV
B6: FC05 (antibody, V domains shown)
VH: VQLLEQSGAEVKKPGASVRVSCKVSGYTLPEVAMHWVRQAPGKGLEWMGGFDPEDGETMYAQKFQGRVTMTEDTSTDTAYMELSSLRSEDTAVYYCATTTPFSSSYWFDPWGQGTLVTVSS
VL: QSVLTQAPSVSGAPGQKVTISCSGSSSNIGNNYVSWYQQLPGTAPKLLIYDNNKRPSGIPDRFSGSKSGTSATLGITGLQTGDEADYYCGTWDSSLSAVVFGGGTKLTVL
B7: FC118 (antibody, V domains shown)
VH: EVQLLESGGGVVQPGRSLRLSCAASGFTFSSYAMHWVRQAPGKGLEWVAVISYDGSNKYYADSVKGRFTISRDNSKNTLYLQMNSLRAEDTAVYYCARARGGSYLYGMDVWGQGAMVTVSS
VL: DIELTQSPSSLAASVGDTVTITCRASQTIGKYLTWYQKKPGRAPDLLIYAASRLQSGVPSRFSGRASGTEFTLTISSLQPEDFATYFCQHTYRTLSFGPGTKVDLK
B8: FC122 (antibody, V domains shown)
VH: B7 VH with V50L, S56I, K65N, N77Y, R100H, G101R, L105Y, A115T
VL: DIELTQSPSSLSASVGDSVTITCRGSQIISRYLNWYQQKPGKAPKLLIYAASTLQSGVPSRFSGSGSGTEFTLSISSLEPEDFATYYCQQSYAIPYTFGQGTRLEI
B9: FC124 (antibody, V domains shown)
VH: B7 VH with V50L, S56I, K65N, N77Y, R100H, G101R, L105Y, A115T
VL: DIELTQSPGTLSLSPGERATLYCRASQSVSSSYLAWYQQKPGQAPRLLIYGAFGRAAGIPDRFRGSGSGTQFTLTISRLEPEDSAVYFCQQYGQSPLYSFGQGTKLEIK
B10: FC120 (antibody, V domains shown)
VH: EVQLLESGAEVKKPGASVKVSCKASGYTFTSYYMHWVRQAPGQGLEWMGIINPSGGSTSYAQKFQGRVTMTRDTSTSTVYMELSSLRSEDTAVYYCARGGGHALDIWGQGTMVTVSS
VL: B6 VL with A7P, V99W

biological target: SARS-CoV-2 RBD (recombinant, limits not stated) (SARS-CoV-2, UniProt P0DTC2 333-526); assay: SPR

Compared with B1, B2 is 18-fold lower in Kd: 5.24 nM for the first, 0.298 nM for the second. The second binds more tightly here.

B3 was tested, and the Kd was 0.628 nM.

biological target: SARS-CoV-2 NTD (recombinant, limits not stated) (SARS-CoV-2); assay: SPR

First: B4
Second: B5
The Kd of the first is 8.5-fold lower: 7.49 nM for the first, 63.4 nM for the second.

For B6, the Kd was 4.32 nM.

biological target: SARS-CoV-2 S2 (recombinant) (SARS-CoV-2); assay: SPR

Compared with B7, B8 is 4.4-fold lower in Kd: 41.1 nM for the first, 9.44 nM for the second. The second binds more tightly here.

Compared with B9, B10 is 1.8-fold lower in Kd: 38.6 nM for the first, 21.8 nM for the second. The second binds more tightly here.
